Experimental data taken from the supplement of paper PMC7125110.
± gives the standard error. For part of these data: Variants at the floor of the assay were thinned out.

B1: glmS ribozyme (parent)
chain: AUAAAAGCGCCAGAACUACAGAAAUGUAGUUGACGAGGAGGAGGUUUAUCGAAUUUUCGGCGGAUGCCUCCAAA

Key:
Conditions in all cases: with glucosamine-6-phosphate
[1] = variants of: B1; assay: kcat; higher = faster cleavage; RNA array
How it was run: (§1)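 In situ transcription by E. coli RNA polymerase produced barcoded ribozyme variants on sequenced MiSeq chips, and a hybridised Cy3 probe tracked them at 37 °C. Glucosamine-6-phosphate was flowed in at 40 μM to 10 mM in HEPES/KCl/Mg(OAc)2 buffer. kcat and KM were taken from weighted Michaelis–Menten fits of kobs values from exponential decay fits.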

[2] = variants of: B1; assay: KM; higher = weaker cofactor use; RNA array
How it was run: as §1

[3] = variants of: B1; assay: self-cleavage kobs at 40 uM GlcN6P; higher = faster cleavage; RNA array
How it was run: as §1

[4] = variants of: B1; assay: self-cleavage kobs at 160 uM GlcN6P; higher = faster cleavage; RNA array
How it was run: as §1

[5] = variants of: B1; assay: self-cleavage kobs at 640 uM GlcN6P; higher = faster cleavage; RNA array
How it was run: as §1

[6] = variants of: B1; assay: self-cleavage kobs at 2500 uM GlcN6P; higher = faster cleavage; RNA array
How it was run: as §1

[7] = variants of: B1; assay: self-cleavage kobs at 10000 uM GlcN6P; higher = faster cleavage; RNA array
How it was run: as §1

Row | Variant | kcat [1] | KM [2] | self-cleavage kobs at 40 uM GlcN6P [3] | self-cleavage kobs at 160 uM GlcN6P [4] | self-cleavage kobs at 640 uM GlcN6P [5] | self-cleavage kobs at 2500 uM GlcN6P [6] | self-cleavage kobs at 10000 uM GlcN6P [7]
1 | AUAAAAGCGCCAGAAUUACAGAAAUGUAGUUGACGAGGAGGAGGUAUAUCGAAUUUUCGGCGGAUGCCUCCAAA [C16U U46A] | 0.00336 ± 0.00057 s⁻¹ | 2760 ± 760 µM | 5.67e-05 ± 1.4e-05 s⁻¹ | 0.00012 ± 5.1e-05 s⁻¹ | 0.000641 ± 0.00012 s⁻¹ | 0.00176 ± 0.00024 s⁻¹ | 0.00249 ± 0.00038 s⁻¹
2 | AUAAAAGCGCCAGAAUUACAGAAAUGUAGUUGACGAGGAGGAGGUUUAUCGAAUUUUCGGCGGAUCCCUCCAAA [C16U G66C] | 0.000514 ± 9.1e-05 s⁻¹ | 657 ± 250 µM |  | 9.64e-05 ± 2.1e-05 s⁻¹ | 0.000282 ± 4e-05 s⁻¹ | 0.000496 ± 7.3e-05 s⁻¹ | 0.000398 ± 7.3e-05 s⁻¹
3 | AUAAAAGCGCCAGAAUUACAGAAAUGUAGUUGACGAUGAGGAGGUUUAUCCAAUUUUCGGCGGAUGCCUCCAAA [C16U G37U G51C] | < 1e-05 s⁻¹ |  | < 1e-05 s⁻¹ | < 1e-05 s⁻¹ | < 1e-05 s⁻¹ |  | 
4 | AUAAAAGCGCCAGAAUUACAGAAAUGUAGUUGACGAGGAGGAGGUUUAUCGAAUUUUCGACGGAUGCCUCCAAA [C16U G60A] | 1.69e-05 ± 4.6e-06 s⁻¹ |  | < 1e-05 s⁻¹ |  |  | 2.66e-05 ± 1.3e-05 s⁻¹ | 
5 | AUAAAAGCGCCAGAAUUACAGAAAUGUAGUUGACGAGGAGGAGGUUUAUCGAAUUUUCGGCGGAUCUCUCCAAA [C16U G66C C67U] | 3.45e-05 ± 4.4e-06 s⁻¹ |  |  |  |  |  | 
6 | AUAAAAGCGCCAGAAUUACAGAAAUGUAGUUGACGAGGACGAGGUUUAUCGAAUUUUCGGCGGAUGCCUCCAAA [C16U G40C] | 0.00242 ± 0.00035 s⁻¹ | 1020 ± 220 µM | 0.00011 ± 1.1e-05 s⁻¹ | 0.000291 ± 3.7e-05 s⁻¹ | 0.000837 ± 8.6e-05 s⁻¹ | 0.00184 ± 0.00021 s⁻¹ | 0.00227 ± 0.00027 s⁻¹
7 | AUAAAAGCGCCAGAAUUACAGAAAUGUAGUUGACGAGGAGCAGGUUUAUCGAAUUUUCGGCGGAUGCCUCCAAA [C16U G41C] | 0.000304 ± 4.3e-05 s⁻¹ | 1030 ± 370 µM |  | 2.95e-05 ± 1.4e-05 s⁻¹ | 0.000139 ± 3.6e-05 s⁻¹ | 0.000244 ± 3.8e-05 s⁻¹ | 0.000246 ± 4.5e-05 s⁻¹
8 | AUAAAAGCGCCAGAAUUACAGAAAUGUAUUUGACGAGGAGGAGGUUUAUCGAAUUUUCGGCGGAUGCCUCCAAA [C16U G29U] | 0.00871 ± 0.0037 s⁻¹ |  | 0.000315 ± 2.9e-05 s⁻¹ | 0.000639 ± 8.5e-05 s⁻¹ | 0.00245 ± 0.00028 s⁻¹ | 0.00415 ± 0.00061 s⁻¹ | 0.0111 ± 0.0014 s⁻¹
9 | AUAAAAGCGCCAGAAUUACAGAAAUGUAGUUGACGAUGAGGAGGUUUAUCGAAUUUUCGGCGGAUGCCUCCAAA [C16U G37U] | < 1e-05 s⁻¹ |  | < 1e-05 s⁻¹ |  |  |  | 
